{"source": "paper PMC7542365", "about": "(mBio, 2020)", "binders": {"B1": {"name": "Z2B3-D102R Fab (Fab, V domains shown)", "VH": "EVQLVQSGAEVKKPGSSVKVSCKASGGPFSSYGFSWVRQAPGQGLEWMGGIIPVYGTTNYAQKFQGRVTITADESTSTAYMELSSLKSEDTAVYYCARDLQRTPMVDRIIGSYYYYNGLDVWGQGTTVTVSS", "VL": "QSVLTQPASVSGSPGQSITISCTGASSDVGDYNYVSWYQQHPGKAPKLMIYDVSNRPSGVSNRFSGSKSGDTASLTISGLQAEDEADYYCSSYTRSSSVVFGGGTKLTVL"}}, "target": "T1, A/Serbia/NS-601/2014 H1N1 NA, soluble tetramer with His tag attached (Influenza A virus A/Serbia/NS-601/2014 …, strain)", "T1 chain": "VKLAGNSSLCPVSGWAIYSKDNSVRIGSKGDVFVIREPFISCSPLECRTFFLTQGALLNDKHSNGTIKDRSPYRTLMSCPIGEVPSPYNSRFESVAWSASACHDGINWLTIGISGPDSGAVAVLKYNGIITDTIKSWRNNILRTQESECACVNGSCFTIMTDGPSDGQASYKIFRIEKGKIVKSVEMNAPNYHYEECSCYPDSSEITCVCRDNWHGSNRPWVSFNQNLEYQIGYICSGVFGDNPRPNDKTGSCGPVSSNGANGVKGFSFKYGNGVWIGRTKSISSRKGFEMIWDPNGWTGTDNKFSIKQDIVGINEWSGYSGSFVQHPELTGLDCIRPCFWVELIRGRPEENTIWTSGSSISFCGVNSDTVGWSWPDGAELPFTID", "assay": "SPR", "conditions": "both partners purified"}
{"binder": "B1", "values": [{"measurement": "Kd", "value": 401, "unit": "nM"}]}
